Experimental data as given in article PMC11401910, “Dual client binding sites in the ATP-independent chaperone SurA” (Nature Communications, 2024).

Assays:
OmpX = conditions: ~75 pM double-labelled OmpX, 30 μM SurA variant, 20 mM Tris-HCl, 0.1 M urea, 0.02% Tween-20, pH 8.0, ~21 °C; apo-OmpX ~0.85
Protocol: Samples were measured at a volume of 100 μL in an 18 well sample chamber (81817, Ibidi) with the focal spot 50 μm above the cover glass on a custom-built confocal microscope (Supplementary Methods) at room temperature (~21 °C). […] Aged Trolox was prepared by adding 1 mM of Trolox to measurement buffer and incubating the sample overnight at room temperature on a rotary shaker to dissolve before being filtered using a 0.22 μm pore size membrane. Tween-20 (0.02% v/v) was added to prevent non-specific absorption to the glass slide.
The ptu files from the SymPhoTime64 software were converted into HDF5 data files using phconvert v0.9 (available at https://github.com/Photon-HDF5/phconvert). Each of these files was then merged to create one file for each condition. […] Firstly, the background was independently calculated for every 60 s period of measurement. […]
BVA[68] was used to assay for dynamics on the ms timescale occurring during bursts. This analysis compares the expected variance in Eraw based on shot noise against the measured variance in Eraw in each individual burst (si). […] To calculate si, we segmented each burst into consecutive windows of 5 photons, and calculated the standard deviation of all windows within the burst. […]

SurA = conditions: read-out: Kd, binding of full-length unfolded OmpX to SurA; cited from earlier work
Excerpt: (where Ar is an aromatic residue and X is any amino acid), or aromatic-enriched sequences containing an Ar-X-Ar-X-Pro motif. […] Both of these types of peak changes (shifts and/or broadening), can report on binding or conformational changes caused by binding at the location of the corresponding ^13CH3 probe[73],[74].

SurA-WT = target: T1, SurA-WT (Escherichia coli, UniProt P0ABZ6); assay type: binding; conditions: pH 8
T1 construct: made in house; host or cells: E. coli BL21(DE3)
Protocol: All NMR experiments were performed on a 950-MHz Bruker Ascend Avance III HD NMR spectrometer equipped with either a Bruker 3 mm TCI or 5 mm TXO triple-resonance cryogenically cooled probe. Peptide binding experiments were performed in 5 mM EDTA, 20 mM Tris-HCl, pH 8.0 with 5 % (v/v) D2O at 25 °C. Binding experiments using full-length OMP sequences also contained 0.8 M urea. Data was acquired for ~16 h with the exception of OMP-containing experiments which were acquired for ~5 h. […] (2D ^1H-^13C SOFAST-HMQC)[70]. […] Errors in the intensity ratios for each peak between two spectra were obtained by propagating the errors according to:1 δR=R*δX/X+δY/Y where δR is the error in the intensity ratio, |R| is the value of the intensity ratio, X and Y are the intensity values for the peak in the first and second spectrum, respectively, and δX and δY are the noise floor values for the first and second spectrum, respectively.
Z-scores for intensity ratio and CSP data were calculated using:3 Zi=xi−μ/σ where xi is the value for a particular peak, and µ and σ are the mean and standard deviation for all peaks, respectively.
For assignment of SurA-WT Ile and Met residues (43 in total) each residue was individually mutated (Supplementary Table 3), and the effect of the mutation assessed by methyl-TROSY NMR. Samples contained 5–70 µM SurA variant. […]

T1 sequence (P0ABZ6 other isoform, or with tags, fused parts or gaps): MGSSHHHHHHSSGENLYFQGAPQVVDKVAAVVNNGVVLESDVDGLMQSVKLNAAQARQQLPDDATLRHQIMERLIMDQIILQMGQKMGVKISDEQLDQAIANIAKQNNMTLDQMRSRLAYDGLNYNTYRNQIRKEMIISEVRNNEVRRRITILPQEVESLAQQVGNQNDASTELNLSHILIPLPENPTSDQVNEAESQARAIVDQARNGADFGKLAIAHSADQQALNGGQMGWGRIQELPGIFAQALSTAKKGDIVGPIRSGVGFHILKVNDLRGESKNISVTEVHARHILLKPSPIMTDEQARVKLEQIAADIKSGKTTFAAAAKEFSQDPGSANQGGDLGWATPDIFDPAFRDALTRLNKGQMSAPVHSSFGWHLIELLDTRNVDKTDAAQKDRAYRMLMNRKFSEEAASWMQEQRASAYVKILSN

Molecule	Maximum of the raw FRET distribution (Eraw) of OmpX bound to SurA variant (OmpX)	Kd (SurA) [nM]	Interaction of unfolded OMP with SurA-WT domains by methyl-TROSY NMR, in words (SurA-WT)
SurA-core: SurA construct lacking both PPIase domains (residues 172-389 deleted) (protein, left off: His6, N-terminal, state not stated) APQVVDKVAAVVNNGVVLESDVDGLMQSVKLNAAQARQQLPDDATLRHQIMERLIMDQIILQMGQKMGVKISDEQLDQAIANIAKQNNMTLDQMRSRLAYDGLNYNTYRNQIRKEMIISEVRNNEVRRRITILPQEVESLAQQVGNQNDASDAAQKDRAYRMLMNRKFSEEAASWMQEQRASAYVKILSN	~ 0.45		
OmpX: unfolded E. coli outer membrane protein OmpX, mature sequence residues 24-171 (protein) ATSTVTGGYAQSDAQGQMNKMGGFNLKYRYEEDNSPLGVIGSFTYTEKSRTASSGDYNKNQYYGITAGPAYRINDWASIYGVVGVGYGKFQTTEYPTYKHDTSDYGFSYGAGLQFNPMENVALDFSYEQSRIRSVDVGTWIAGVGYRF		~1000	regions in the core and P1 domains directly interact with OmpX, while P2 is largely uninvolved in OmpX binding
